Measured values: patent US20240033291A1

Assays:
[1] = biological target: mesothelin on the cell membrane of the pancreatic cancer cell line AsPC-1 (mesothelin-overexpressing cell line) (human) (UniProt Q13421); assay: flow cytometry, phage on AsPC-1 cells, anti-M13-FITC
[2] = biological target: mesothelin on the cell membrane of the pancreatic cancer cell line AsPC-1 (mesothelin-overexpressing cell line) (human) (UniProt Q13421); assay: flow cytometry, phage on AsPC-1 cells against K562 control cells, anti-M13-FITC

B1: MSLN3 phage clone (scFv displayed on phage, KBIO human synthetic scFv phage display library KscFv-I) (scFv, V domains shown, not shown: small tags and cut ends; large carriers)
VH: EVQLVESGGGLVQPGGSLRLSCAASGFTFSDYAMSWVRQAPGKGLEWVSAISSSGGTTYYADSVKGRFTISRDNSKNTLYLQMNSLRAEDTAVYYCAKEEEGEWREYFDVWGQGTLVTVSS
VL: DIQMTQSPSSLSASVGDRVTITCRASQSISSYLNWYQQKPGKAPKLLIYATSTLQSGVPSRFSGSGSGTDFTLTISSLQPEDFATYYCQQSYTFPYTFGQGTKVEIK
For B1, the relative peak shift value [1] was greater than 3% and the relative peak shift value [2] was 23.8%.
